Assay [1] deals with human platelet glycoprotein Ib alpha (GPIb alpha), on human platelets (human) (UniProt P07359).
Assay [2] shares this target. The assay is described as follows: cell-based or functional assay.
Assay [3] addresses human platelet integrin alphaIIb beta3, on human platelets (human) (UniProt P08514). The assay is described as follows: cell-based or functional assay.
Assay [4] concerns the target murine platelet glycoprotein Ib alpha (GPIb alpha), on mouse platelets (mouse) (UniProt O35930). Nature of the assay: cell-based or functional assay.
Assay [5] addresses human platelet glycoprotein Ib alpha (GPIb alpha), on human platelets (human) (UniProt P07359). The assay is described as follows: human whole blood perfused over surface-bound protein, parallel-plate flow chamber, 1600 s^-1.

Sequence of human platelet glycoprotein Ib alpha (GPIb alpha), on human platelets (human) (P07359 17-652): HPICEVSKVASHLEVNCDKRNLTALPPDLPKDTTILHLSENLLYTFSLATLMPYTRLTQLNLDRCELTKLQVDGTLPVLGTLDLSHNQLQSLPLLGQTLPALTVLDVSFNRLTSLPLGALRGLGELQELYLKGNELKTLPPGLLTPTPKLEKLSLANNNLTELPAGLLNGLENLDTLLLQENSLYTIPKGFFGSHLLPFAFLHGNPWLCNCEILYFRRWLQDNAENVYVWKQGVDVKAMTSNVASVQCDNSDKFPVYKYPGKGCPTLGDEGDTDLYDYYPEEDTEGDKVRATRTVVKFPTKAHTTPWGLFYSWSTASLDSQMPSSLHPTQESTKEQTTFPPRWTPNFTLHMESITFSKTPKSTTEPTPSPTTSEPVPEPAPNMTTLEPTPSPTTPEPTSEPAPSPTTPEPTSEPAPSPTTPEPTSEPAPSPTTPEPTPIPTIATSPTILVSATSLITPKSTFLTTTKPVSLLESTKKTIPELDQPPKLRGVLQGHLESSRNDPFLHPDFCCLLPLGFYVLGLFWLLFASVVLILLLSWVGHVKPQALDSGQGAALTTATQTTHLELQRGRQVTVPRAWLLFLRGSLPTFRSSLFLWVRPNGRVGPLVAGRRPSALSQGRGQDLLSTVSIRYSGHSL
Sequence of murine platelet glycoprotein Ib alpha (GPIb alpha), on mouse platelets (mouse) (O35930 17-734): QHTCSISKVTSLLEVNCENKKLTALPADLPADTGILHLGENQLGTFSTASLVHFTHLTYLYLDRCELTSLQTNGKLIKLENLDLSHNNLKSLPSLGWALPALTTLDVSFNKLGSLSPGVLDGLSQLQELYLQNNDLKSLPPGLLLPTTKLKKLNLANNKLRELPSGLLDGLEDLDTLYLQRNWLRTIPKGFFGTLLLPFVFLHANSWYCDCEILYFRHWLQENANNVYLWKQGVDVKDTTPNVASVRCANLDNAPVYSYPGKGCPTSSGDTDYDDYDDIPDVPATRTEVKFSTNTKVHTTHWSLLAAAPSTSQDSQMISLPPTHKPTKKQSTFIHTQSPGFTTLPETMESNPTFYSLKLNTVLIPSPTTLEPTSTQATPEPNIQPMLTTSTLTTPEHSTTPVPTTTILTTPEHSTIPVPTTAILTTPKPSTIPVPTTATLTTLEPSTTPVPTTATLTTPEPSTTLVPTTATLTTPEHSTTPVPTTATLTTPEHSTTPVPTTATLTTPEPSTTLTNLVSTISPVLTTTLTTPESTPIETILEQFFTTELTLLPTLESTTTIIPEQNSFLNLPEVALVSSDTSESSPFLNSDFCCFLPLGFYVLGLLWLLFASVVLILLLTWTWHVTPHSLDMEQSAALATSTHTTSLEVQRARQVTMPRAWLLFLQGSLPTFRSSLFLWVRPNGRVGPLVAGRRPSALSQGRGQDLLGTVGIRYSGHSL
Sequence of human platelet integrin alphaIIb beta3, on human platelets (human) (P08514 32-1039, chain 1 of 2): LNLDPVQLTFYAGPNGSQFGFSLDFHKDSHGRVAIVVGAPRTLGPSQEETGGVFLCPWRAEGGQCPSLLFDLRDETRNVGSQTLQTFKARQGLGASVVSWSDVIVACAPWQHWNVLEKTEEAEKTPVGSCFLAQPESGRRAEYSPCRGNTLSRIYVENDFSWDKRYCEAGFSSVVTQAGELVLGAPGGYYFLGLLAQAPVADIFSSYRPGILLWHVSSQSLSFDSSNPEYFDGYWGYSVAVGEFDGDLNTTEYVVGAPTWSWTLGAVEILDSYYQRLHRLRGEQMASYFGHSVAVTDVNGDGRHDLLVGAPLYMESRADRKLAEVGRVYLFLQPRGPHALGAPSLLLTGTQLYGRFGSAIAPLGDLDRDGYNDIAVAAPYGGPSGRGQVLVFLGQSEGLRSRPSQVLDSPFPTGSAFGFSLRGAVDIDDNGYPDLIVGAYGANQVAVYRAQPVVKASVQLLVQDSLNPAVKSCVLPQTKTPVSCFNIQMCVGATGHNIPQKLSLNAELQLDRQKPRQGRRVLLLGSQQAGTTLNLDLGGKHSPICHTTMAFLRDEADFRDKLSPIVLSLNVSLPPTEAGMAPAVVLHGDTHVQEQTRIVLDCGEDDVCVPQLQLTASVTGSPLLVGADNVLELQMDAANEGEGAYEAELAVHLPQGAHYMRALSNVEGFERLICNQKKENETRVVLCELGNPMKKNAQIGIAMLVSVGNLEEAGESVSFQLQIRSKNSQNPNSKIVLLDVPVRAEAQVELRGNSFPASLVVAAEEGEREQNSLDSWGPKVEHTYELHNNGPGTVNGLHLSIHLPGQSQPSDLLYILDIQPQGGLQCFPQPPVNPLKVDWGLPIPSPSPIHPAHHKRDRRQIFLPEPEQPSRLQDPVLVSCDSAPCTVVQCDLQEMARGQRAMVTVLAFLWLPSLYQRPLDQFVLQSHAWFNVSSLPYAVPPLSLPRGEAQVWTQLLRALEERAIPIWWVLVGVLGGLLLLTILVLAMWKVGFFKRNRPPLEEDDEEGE
Sequence of human platelet integrin alphaIIb beta3, on human platelets (human) (P05106 27-788, chain 2 of 2, further chain): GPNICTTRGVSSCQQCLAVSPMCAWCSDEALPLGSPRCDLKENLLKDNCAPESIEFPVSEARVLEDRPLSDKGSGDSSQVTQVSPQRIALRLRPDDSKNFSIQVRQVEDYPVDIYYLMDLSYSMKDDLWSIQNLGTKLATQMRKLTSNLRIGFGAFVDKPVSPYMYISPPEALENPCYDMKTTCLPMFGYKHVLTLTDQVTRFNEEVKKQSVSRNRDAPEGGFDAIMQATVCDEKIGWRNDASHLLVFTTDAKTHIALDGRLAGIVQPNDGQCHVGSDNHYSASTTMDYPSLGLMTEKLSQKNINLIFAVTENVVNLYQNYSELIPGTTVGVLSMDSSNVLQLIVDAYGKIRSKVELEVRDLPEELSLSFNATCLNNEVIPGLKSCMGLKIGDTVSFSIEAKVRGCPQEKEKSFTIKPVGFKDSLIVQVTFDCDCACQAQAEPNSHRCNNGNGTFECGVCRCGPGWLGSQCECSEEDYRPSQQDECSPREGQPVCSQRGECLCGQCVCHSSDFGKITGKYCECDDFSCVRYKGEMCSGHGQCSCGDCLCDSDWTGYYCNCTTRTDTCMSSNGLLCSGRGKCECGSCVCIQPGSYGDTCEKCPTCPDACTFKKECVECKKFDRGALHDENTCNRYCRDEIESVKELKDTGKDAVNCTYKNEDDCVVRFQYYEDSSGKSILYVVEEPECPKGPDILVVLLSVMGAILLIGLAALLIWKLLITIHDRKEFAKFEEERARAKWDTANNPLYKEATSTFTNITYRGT

As for “function-blocking monoclonal antibody 6D1 (anti-human GPIb alpha)”, the human platelet accumulation / mm2 on surface-immobilized murine plasma VWF 1326R>H at 1600 s^-1, human blood treated with mAb 6D1 in assay [1] is 0 / mm2. In assay [2], the thrombus size in VWF 1326R>H mice after pre-treatment of human platelets with mAb 6D1 worked out at 265 µm^2.
As to “function-blocking monoclonal antibody 7E3 (anti-human alphaIIb beta3)”, the thrombus size in VWF 1326R>H mice after treatment of human platelets with mAb 7E3 in assay [3] turned out to be 529 µm^2.
In the case of “murine plasma VWF with the 1326R>H mutation (from homozygous VWF 1326R>H knock-in mice), Q8CIZ8 764-2813”, in assay [2], the average thrombus size at laser-injured arterioles of homozygous VWF 1326R>H mice infused with human platelets worked out at 8950 µm^2, the share of human cells in thrombi at laser-injured arterioles of homozygous VWF 1326R>H mice stood at 91.7% and the translocation velocity of human platelets on immobilized plasma VWF turned out to be 3.5 µm/sec. Besides, in assay [4], the thrombi formed on collagen-coated cover slips by whole blood of knock-in animals, 1600 s^-1, reduction against WT is 70% and the thrombus formation by whole blood of mutant mice over surface-immobilized collagen in vitro, reduction against WT was determined as 80%.
Substance “murine plasma VWF, wild type, Q8CIZ8 764-2813” registered a share of human platelets in total thrombus area in WT mice in assay [2] of 5.7%. Further, the ristocetin-induced platelet aggregation (RIPA), murine PRP, ristocetin ≧2.5 mg/ml in assay [4] is 30%. In addition, the platelet deposition, % of same-species control in assay [5] was found to be 10%.

(Values after patent publication US20090202429A1.)
